Laboratory results: publication PMC10997794, “Seeding the meiotic DNA break machinery and initiating recombination on chromosome axes” (Nature Communications, 2024)

Target: T1, SUMO-His tagged HORMAD1 HORMA (residues 1-235) (mouse, UniProt Q9D5T7 1-235)
T1 construct: HORMAD1, mouse, HORMA domain, amino acids 1-235, from codon-optimized synthetic DNA; also called the HORMA domain of HORMAD1; source: E. coli BL21(DE3), purified (Talon, ion exchange, SEC); not shown: SUMO, N-terminal, kept; His, N-terminal, kept
T1 sequence (looked up): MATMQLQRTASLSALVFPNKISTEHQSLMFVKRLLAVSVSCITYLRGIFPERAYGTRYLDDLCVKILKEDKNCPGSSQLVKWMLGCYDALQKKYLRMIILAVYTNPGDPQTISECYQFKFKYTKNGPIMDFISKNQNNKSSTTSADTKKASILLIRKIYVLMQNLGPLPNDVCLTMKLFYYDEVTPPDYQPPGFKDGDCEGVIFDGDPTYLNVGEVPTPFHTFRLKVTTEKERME
Test: pull-down; amylose pull-down; MBP-tagged IHO1 truncations as baits at 1 µM with 12 µM SUMO-His HORMAD1 HORMA; 20 mM HEPES pH 7.5, 100 mM NaCl, 5% glycerol, 1 mM TCEP, 0.1% Tween20; 8 °C; Coomassie and immunoblot
Conditions: both partners purified

B1: MBP-tagged IHO1 truncation, residues 359-574 (domain or fragment, mouse, UniProt Q6PDM4 359-574, looked up)
chain: KNWVMTTRSVSNHFSNLPSQRAGNGQGLMAQGASQRDVSKFEARVKNACPEYGPQSMCSFDSLEQSATEQKGRPCRKRRRGKKQQPQRSKRGGLLDRKQGQTSKAACAFIARHHCPQSPVCDPQGPLICWLTPRSSTKSTCHILGGTGETSQTARAAQGNLVQHSQRSSTDSSSQGDQQINWFSDLSLENLEPPQCKKGGTNLLCDPDFDSSDDNF
notes: The MBP tag is 3C HRV cleavable but was kept for the amylose pull-down; source: High Five insect cells (baculovirus), purified (MBP-trap, Resource Q, Superdex200); not shown: MBP, N-terminal, kept
B1: binds.
